This is an account of results in PMC7440162 (Cell, 2020).

Holding throughout (test): SPR
One test deals with T1, ICAM5 ECD-Fc (human, UniProt Q9UMF0 32-835, biotin on the AviTag (as SPR ligand)).
T1 sequence: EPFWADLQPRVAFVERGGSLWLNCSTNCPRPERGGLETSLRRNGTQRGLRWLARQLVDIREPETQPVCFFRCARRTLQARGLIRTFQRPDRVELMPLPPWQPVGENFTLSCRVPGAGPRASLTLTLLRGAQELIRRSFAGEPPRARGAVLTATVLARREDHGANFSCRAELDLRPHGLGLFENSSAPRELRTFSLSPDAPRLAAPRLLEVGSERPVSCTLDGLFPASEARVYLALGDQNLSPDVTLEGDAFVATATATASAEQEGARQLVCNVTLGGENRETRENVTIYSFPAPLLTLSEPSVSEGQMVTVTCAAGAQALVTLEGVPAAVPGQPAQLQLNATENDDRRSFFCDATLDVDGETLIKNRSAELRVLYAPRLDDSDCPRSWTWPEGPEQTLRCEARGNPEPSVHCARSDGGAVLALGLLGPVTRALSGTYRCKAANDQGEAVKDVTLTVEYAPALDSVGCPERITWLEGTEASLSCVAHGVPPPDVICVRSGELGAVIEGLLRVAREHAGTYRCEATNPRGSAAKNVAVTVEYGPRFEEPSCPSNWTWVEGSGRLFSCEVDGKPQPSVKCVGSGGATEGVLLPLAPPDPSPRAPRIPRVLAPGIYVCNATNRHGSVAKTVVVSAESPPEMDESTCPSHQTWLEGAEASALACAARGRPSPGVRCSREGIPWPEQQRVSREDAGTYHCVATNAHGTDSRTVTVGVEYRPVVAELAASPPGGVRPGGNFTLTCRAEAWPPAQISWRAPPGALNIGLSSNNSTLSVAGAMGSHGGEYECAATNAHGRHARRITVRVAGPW

The next test has as its target LTF-Fc (human, UniProt P02788, biotin on the AviTag (as SPR ligand)).
In another test the target is T2, PTPRS ECD-Fc (human, UniProt Q13332 30-1282).
T2 sequence: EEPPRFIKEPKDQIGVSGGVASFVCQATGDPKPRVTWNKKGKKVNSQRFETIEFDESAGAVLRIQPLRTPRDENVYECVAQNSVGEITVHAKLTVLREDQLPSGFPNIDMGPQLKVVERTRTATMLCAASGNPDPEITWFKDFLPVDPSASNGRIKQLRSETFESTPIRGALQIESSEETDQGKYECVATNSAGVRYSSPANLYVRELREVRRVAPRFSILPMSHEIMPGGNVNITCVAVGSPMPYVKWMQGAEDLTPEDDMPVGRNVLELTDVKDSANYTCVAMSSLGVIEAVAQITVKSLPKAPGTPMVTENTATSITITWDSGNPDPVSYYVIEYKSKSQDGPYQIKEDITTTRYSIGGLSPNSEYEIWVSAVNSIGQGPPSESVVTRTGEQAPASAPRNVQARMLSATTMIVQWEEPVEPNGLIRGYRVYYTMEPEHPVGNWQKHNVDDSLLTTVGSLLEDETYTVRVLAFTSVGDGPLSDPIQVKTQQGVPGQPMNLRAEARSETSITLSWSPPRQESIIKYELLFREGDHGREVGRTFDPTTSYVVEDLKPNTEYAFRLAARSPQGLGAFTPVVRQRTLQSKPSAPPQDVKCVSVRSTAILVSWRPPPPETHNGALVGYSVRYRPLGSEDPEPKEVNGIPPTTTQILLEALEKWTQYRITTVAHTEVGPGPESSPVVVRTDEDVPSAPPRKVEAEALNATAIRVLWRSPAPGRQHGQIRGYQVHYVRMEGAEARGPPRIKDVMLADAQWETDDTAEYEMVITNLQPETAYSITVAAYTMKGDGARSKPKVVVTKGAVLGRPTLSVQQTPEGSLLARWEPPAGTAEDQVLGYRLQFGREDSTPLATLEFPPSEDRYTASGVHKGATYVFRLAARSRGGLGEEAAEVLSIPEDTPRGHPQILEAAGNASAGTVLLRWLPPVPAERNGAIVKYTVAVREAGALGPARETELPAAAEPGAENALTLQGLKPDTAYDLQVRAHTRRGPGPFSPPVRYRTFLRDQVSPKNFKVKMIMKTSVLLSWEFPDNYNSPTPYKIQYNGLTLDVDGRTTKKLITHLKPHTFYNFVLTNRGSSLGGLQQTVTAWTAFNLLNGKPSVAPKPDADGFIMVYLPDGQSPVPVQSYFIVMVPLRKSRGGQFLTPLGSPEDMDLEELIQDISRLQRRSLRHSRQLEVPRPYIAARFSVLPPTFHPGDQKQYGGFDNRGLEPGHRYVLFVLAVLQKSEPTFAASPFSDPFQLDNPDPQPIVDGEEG

Another test concerns the target T3, PTPRD ECD-Fc (human, UniProt P23468 21-1265).
T3 sequence: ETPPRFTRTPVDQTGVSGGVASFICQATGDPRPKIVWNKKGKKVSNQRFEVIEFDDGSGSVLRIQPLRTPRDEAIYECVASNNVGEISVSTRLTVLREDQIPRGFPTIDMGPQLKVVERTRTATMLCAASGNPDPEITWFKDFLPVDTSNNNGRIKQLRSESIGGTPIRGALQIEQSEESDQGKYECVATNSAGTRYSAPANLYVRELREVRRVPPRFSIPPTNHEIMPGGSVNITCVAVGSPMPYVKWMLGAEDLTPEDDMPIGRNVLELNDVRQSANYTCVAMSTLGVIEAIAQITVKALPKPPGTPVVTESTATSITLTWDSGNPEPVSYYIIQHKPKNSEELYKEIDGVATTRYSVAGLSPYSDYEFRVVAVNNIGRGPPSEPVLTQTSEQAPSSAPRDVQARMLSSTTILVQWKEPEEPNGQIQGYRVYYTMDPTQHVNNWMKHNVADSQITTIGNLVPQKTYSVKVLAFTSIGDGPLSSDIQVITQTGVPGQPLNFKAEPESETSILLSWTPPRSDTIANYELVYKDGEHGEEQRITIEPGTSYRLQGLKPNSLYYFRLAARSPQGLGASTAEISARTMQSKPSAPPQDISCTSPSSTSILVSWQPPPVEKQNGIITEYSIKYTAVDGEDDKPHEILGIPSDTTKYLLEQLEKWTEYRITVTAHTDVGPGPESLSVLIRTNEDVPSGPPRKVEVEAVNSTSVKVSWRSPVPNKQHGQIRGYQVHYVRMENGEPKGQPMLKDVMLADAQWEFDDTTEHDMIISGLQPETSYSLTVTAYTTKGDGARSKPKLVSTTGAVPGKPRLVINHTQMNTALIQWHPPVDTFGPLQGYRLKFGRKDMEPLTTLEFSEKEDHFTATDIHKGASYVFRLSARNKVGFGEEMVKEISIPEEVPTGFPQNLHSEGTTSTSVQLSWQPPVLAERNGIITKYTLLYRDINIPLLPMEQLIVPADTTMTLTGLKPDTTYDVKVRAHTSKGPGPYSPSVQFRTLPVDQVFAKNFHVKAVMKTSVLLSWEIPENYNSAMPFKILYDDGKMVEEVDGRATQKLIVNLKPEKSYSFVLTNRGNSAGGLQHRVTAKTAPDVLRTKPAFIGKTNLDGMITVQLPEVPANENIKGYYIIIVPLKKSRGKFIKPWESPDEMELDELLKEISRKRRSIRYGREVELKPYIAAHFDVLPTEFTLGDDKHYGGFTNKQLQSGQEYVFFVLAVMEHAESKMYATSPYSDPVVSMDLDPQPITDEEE

The next test has as its target T4, PTPRF ECD-Fc (human, UniProt P10586 30-1263).
T4 sequence: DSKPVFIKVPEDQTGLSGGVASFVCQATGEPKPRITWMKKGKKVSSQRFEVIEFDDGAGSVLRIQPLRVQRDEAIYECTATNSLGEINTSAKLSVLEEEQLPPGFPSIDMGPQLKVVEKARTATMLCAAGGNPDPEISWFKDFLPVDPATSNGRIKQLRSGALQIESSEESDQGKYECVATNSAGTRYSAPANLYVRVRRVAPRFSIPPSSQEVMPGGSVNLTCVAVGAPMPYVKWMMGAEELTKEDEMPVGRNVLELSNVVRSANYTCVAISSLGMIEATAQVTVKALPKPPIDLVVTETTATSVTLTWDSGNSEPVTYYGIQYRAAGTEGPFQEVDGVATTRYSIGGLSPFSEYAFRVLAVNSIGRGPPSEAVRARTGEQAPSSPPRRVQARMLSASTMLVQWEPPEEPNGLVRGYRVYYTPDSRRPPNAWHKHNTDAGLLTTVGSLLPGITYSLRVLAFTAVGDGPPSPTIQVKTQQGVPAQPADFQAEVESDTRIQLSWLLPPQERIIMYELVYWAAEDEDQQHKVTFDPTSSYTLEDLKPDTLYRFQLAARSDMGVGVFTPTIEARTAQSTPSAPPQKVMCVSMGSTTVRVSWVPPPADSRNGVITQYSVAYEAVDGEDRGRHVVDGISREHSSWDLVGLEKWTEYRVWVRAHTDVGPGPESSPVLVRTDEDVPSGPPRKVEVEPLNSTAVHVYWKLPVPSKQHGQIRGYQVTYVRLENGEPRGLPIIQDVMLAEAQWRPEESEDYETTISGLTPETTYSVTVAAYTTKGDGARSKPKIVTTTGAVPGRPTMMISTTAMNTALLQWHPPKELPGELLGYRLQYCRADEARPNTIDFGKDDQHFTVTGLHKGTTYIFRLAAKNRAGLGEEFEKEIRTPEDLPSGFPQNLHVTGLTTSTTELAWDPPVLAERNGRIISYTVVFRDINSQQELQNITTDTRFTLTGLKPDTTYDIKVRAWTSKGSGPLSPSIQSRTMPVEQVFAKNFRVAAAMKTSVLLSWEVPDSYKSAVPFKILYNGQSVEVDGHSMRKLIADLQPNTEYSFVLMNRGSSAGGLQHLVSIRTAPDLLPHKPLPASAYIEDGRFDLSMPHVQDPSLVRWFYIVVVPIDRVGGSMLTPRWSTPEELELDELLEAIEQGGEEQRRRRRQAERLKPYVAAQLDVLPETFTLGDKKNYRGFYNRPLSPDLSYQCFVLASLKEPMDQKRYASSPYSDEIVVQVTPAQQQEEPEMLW

LTF-Fc, sequence (P02788 20-710): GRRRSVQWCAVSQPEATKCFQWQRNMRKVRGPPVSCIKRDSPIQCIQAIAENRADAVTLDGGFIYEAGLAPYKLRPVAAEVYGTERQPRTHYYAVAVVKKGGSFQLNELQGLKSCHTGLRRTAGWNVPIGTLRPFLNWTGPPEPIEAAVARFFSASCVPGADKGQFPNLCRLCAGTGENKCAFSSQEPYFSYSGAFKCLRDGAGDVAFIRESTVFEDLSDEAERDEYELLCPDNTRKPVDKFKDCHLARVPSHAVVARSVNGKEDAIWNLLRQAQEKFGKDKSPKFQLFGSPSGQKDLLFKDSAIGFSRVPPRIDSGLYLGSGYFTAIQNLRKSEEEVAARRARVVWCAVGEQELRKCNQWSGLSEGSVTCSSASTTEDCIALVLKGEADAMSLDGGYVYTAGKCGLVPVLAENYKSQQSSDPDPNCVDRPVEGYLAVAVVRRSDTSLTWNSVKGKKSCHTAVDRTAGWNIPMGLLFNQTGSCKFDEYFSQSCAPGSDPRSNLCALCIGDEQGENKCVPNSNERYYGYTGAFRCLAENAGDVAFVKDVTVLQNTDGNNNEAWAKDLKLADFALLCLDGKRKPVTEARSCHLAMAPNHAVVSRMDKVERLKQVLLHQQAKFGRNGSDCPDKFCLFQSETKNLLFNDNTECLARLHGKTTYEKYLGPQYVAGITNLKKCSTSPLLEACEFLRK

B1: human ISLR2 ECD-Fc (Fc fusion)
chain: SCPEPCACVDKYAHQFADCAYKELREVPEGLPANVTTLSLSANKITVLRRGAFADVTQVTSLWLAHNEVRTVEPGALAVLSQLKNLDLSHNFISSFPWSDLRNLSALQLLKMNHNRLGSLPRDALGALPDLRSLRINNNRLRTLAPGTFDALSALSHLQLYHNPFHCGCGLVWLQAWAASTRVSLPEPDSIACASPPALQGVPVYRLPALPCAPPSVHLSAEPPLEAPGTPLRAGLAFVLHCIADGHPTPRLQWQLQIPGGTVVLEPPVLSGEDDGVGAEEGEGEGDGDLLTQTQAQTPTPAPAWPAPPATPRFLALANGSLLVPLLSAKEAGVYTCRAHNELGANSTSIRVAVAATGPPKHAPGAGGEPDGQAPTSERKSTAKGRGNSVLPSKPEGKIKGQGLAKVSILGETETEPEEDTSEGEEAEDQILADPAEEQRCGNGDPSRYVSNHAFNQSAELKPHVFELGVIALDVAEREARVQLTPLAARWGPGPGGAGGAPRPGRRPLRLLYLCPAGGGAAVQWSRVEEGVNAYWFRGLRPGTNYSVCLALAGEACHVQVVFSTKKELPS
modifications: biotin on the AviTag (as SPR ligand)
As to B1, the binding result with ICAM5 ECD-Fc and with LTF-Fc was “binds” throughout.

B2: SALM5 ECD-Fc (Fc fusion)
chain: QICPKRCVCQILSPNLATLCAKKGLLFVPPNIDRRTVELRLADNFVTNIKRKDFANMTSLVDLTLSRNTISFITPHAFADLRNLRALHLNSNRLTKITNDMFSGLSNLHHLILNNNQLTLISSTAFDDVFALEELDLSYNNLETIPWDAVEKMVSLHTLSLDHNMIDNIPKGTFSHLHKMTRLDVTSNKLQKLPPDPLFQRAQVLATSGIISPSTFALSFGGNPLHCNCELLWLRRLSREDDLETCASPPLLTGRYFWSIPEEEFLCEPPLITRHTHEMRVLEGQRATLRCKARGDPEPAIHWISPEGKLISNATRSLVYDNGTLDILITTVKDTGAFTCIASNPAGEATQIVDLHIIKLPHLLNSTNHIHEPDPGSSDISTSTKSGSNTSSSNGDTKLSQDKIVVAEATSSTALLKFNFQRNIPGIRMFQIQYNGTYDDTLVYRMIPPTSKTFLVNNLAAGTMYDLCVLAIYDDGITSLTATRVVGCIQFTTEQDYVRCHFMQSQFLGGTM
modifications: biotin on the AviTag (as SPR ligand)
For the molecule B2, the binding result with PTPRS ECD-Fc, with PTPRD ECD-Fc and with PTPRF ECD-Fc was “binds” each time.

B3: SALM3 ECD-Fc (Fc fusion)
chain: CPLPCVCQNLSESLSTLCAHRGLLFVPPNVDRRTVELRLADNFIQALGPPDFRNMTGLVDLTLSRNAITRIGARAFGDLESLRSLHLDGNRLVELGTGSLRGPVNLQHLILSGNQLGRIAPGAFDDFLESLEDLDLSYNNLRQVPWAGIGAMPALHTLNLDHNLIDALPPGAFAQLGQLSRLDLTSNRLATLAPDPLFSRGRDAEASPAPLVLSFSGNPLHCNCELLWLRRLARPDDLETCASPPGLAGRYFWAVPEGEFSCEPPLIARHTQRLWVLEGQRATLRCRALGDPAPTMHWVGPDDRLVGNSSRARAFPNGTLEIGVTGAGDAGGYTCIATNPAGEATARVELRVLALPHGGNSSAEGGRPGPSDIAASARTAAEGEGTLESEPAVQVTEVTATSGLVSWGPGRPADPVWMFQIQYNSSEDETLIYRIVPASSHHFLLKHLVPGADYDLCLLALSPAAGPSDLTATRLLGCAHFSTLPASPLCHALQAHVLGGTL
modifications: biotin on the AviTag (as SPR ligand)
Regarding B3, the binding result with PTPRS ECD-Fc, in the test with PTPRD ECD-Fc and with PTPRF ECD-Fc was “binds” in each case.
